The values that follow come from the DeepSol protein solubility set.

The nature of the series: soluble on expression in E. coli; label from the status in PepcDB or PDB records.
In the case of “MGSDKIHHHHHHMSKEIDIEYYHQLALQKQKEHRKVLANLKKKPPKNLDKIAQQIHQEVFEEIDCTACANCCKTLGPDFKEADITRIAKYFKMKLPAFEAEFLQVDADGDKVFKSMPCPFLGGDNLCSIYDVRPKACREFPHTDRKKIHQINHLTIKNTLTCPAAYLFVEKLKDKL”, the “soluble on expression in E. coli” value is “not soluble”.

Regarding “GAMAVKVARPCRKIEKWTYLELKGSKANEGVPQAMTAFAEFLNRTGIPINPRFSPGMSMSVPGSEKEFFAKVKELMSSHQFVVVLLPRKDVAIYNMVKRAADITFGVHTVCCVAEKFLSTKGQLGYFANVGLKVNLKFGGTNHNI”, the “soluble on expression in E. coli” value was “soluble”.

Turning to “MALSANSDAVTYAKAANTRTAAETGDRIEWVKLSLAFLPLATPVSDAKVLTGRQKPLTEVAIIIAEIRSRDGFEGVGFSYSKRAGGQGIYAHAKEIADNLLGEDPNDIDKIYTKLLWAGASVGRSGMAVQAISPIDIALWDMKAKRAGLPLAKLLGAHRDSVQCYNTSGGFLHTPLDQVLKNVVISRENGIGGIKLAVGQPNCAEDIRRLTAVREALGDEFPLMVDANQQWDRETAIRMGRKMEQFNLIWIEEPLDAYDIEGHAQLAAALDTPIATGEMLTSFREHEQLILGNASDFVQPDAPRVGGISPFLKIMDLAAKHGRKLAPHFAMEVHLHLSAAYPLEPWLEHFEWLNPLFNEQLELRDGRMWISDRHGLGFTLSEQARRWTQLTCEFGKRP”, the “soluble on expression in E. coli” value is reported as “soluble”.

Consider “MGLISKNRGPCQVCHNTETTRRHFGIISCTACAAFFRRSIGMQYLCTAENRCTISFDRKFFCRACRYASCLKAGMKLELIRKQKNNIYLRFPDAASNQQNLVRDSMSPATSEGGQSSSSKTDEESDDPEYSKILKMYHDDLLQYYVKEVKKMMAEKRRGCEKNTLQIKTISDLMLITARQSGPSMEECLRCPGVDMLEKEDVEALLRYYRFSNIWVDSVLIDSVLESAKGDSHTDTDDRLSRFIQEVKSTLGSSLAHLNLNIYEFAAFKALCIWKLRFYETSFAQKIIAHEHYEGVTGALRNYYENCTELADMEIAIRIGDITLQIVTVQNTYHEMVRLYYQIGMPL”, for which the “soluble on expression in E. coli” value was “not soluble”.

“MGSDKIHHHHHHIWCTPTRLARPDRRGKAIRTIGMADGTIPMNAKPTEEISVREVFGIDTPMLVKGFAERSDRVPEIDQTYKFDPDTTLAILAGFSHNRRVMVQGYHGTGKSTHIEQVAARLNWPCVRVNLDSHISRIDLIGKDAIKLRDGKQVTEFHEGILPWALRNPVAIVFDEYDAGRADVMFVIQRVLEHDGKLTLLDQNEIITPNPCFRLFATANTVGLGDTTGLYHGTQQINQAQMDRWSLVATLNYLSHDAETMIVLSKAPHYNTEKGRKQVSQMVTVADLTRTAFMNGDLSTVMSPRTVINWAQNAEIFRDVGYAFRLTFLNKCDELERQTVAEFYQRCFDEELPESAASTSLG”: the “soluble on expression in E. coli” value was “not soluble”.

As for “MGLHPTLGEHGERELLALQKVDYPKGDVKAQAKHTARTLLECYNCHSLGEYNTLLNLYNITVYEVRGSVDGKEYHGIMYGALDDNGQQVGTPFKSSKFGKVFGYEALQKKFAASAEKVKKDNLPERLEHHHHHH”, the “soluble on expression in E. coli” value was “soluble”.

Take “MSTPSVHCLKPSPLHLPSGIPGSPGRQRRHTLPANEFRCLTPEDAAGVFEIEREAFISVSGNCPLNLDEVQHFLTLCPELSLGWFVEGRLVAFIIGSLWDEERLTQESLALHRPRGHSAHLHALAVHRSFRQQGKGSVLLWRYLHHVGAQPAVRRAVLMCEDALVPFYQRFGFHPAGPCAIVVGSLTFTEMHCSLRGHAALRRNSDR”: the “soluble on expression in E. coli” value is listed as “soluble”.

“MTTNDTYEATYAIPMHCENCVNDIKACLKNVPGINSLNFDIEQQIMSVESSVAPSTIINTLRNCGKDAIIRGAGKPNSSAVAILETFQKYTIDQKKDTAVRGLARIVQVGENKTLFDITVNGVPEAGNYHASIHEKGDVSKGVESTGKVWHKFDEPIECFNESDLGKNLYSGKTFLSAPLPTWQLIGRSFVISKSLNHPENEPSSVKDYSFLGVIARSAGVWENNKQVCACTGKTVWEERKDALANNIK”: the “soluble on expression in E. coli” value is “soluble”.

Turning to “SEEEDDEVMVREGLMASQREIFSISGPIHLTSIDWNNSYHRTSVASCLVQAVYTLERDRQQNRIGLKSQANHWWEFFNFTLAETLIDDSDGSIYGAVFEYKHFFSYNYHHTPHSKPPPRHVIAFRGTILKPHSRSRDLKLDLRCIRDSLHDSTRFVHAIQVIQSAVAKTGNAAVWLAGHSLGAAVALLAGKIMTRSGFPLESYLFNPPFSSIPIEKLVKSEKLKHGVRFAGSLVKAGVAIAVKGRHHNKGQEDDSFMKLASWIPYLYLNPLDTICSEYIGYFKHRNKMFEIGAGKIERIATRNSLRSLLSGGGGGGSSSDSSSEPLHLLPSAYMTINASKSPNFKRAHGIHQWWDPMFNGEYVLHQFNN”, the “soluble on expression in E. coli” value is listed as “soluble”.

“MGSDKIHHHHHHMKVDYHIHLEEGPYSIGWLAKINESLQHYEPLKEEKHSMEWLVKIQERLQRRVNEGPFTTKWIDLYLEEALRKGIKEVGIVDHLYRFYEAKEYYEKYVDISDSGLGRLQKEWLDQVRVASLHDFTKAIEEAKERWSKRGVTLKLGIEADYFIGGEQQLQSLLALGDFDYVIGSVHFLNGWGFDNPDTKEYFKEHDLYALYDTFFKTVECAVRSELFDIIAHLDNIKVFNYRLDENEQISYYKKIARALVETNTATEINAGLYYRYPVREMCPSPLYLQVLAKHEVPITLSSDAHYPNDLGKYVEENIKTLRNHDIAHLATFTKRVRTMRLLEEVTISK”: the “soluble on expression in E. coli” value is “not soluble”.

Take “MGSDKIHHHHHHMPGSHNITKQTGASKMSSTRGAFFPDALMQQVKARFHHVDHDLDGRARLFFDNAGGSFRLKAAVDAYARIDALPDCPERIHERALDLQAIQSRGEDDVRTILNAQGGTVYASLTASGAMFDMVRAIMENVPGTNAVTTVLEHPSSYDAMTYYAERTGKTLRIAPSNPETGGVDVDAIVSLIDADTALLSVMFASNISGAKFDIEAIVARARQKKPGLFIVVDAVQHAPHGIIDLQRTPVDGINFAPYKFFGCRGSGISWLSPRAAALPHHRLAAKESGVWELGSPAPAQFAVVTSIVDYVKWIGRYFVDSDDRRTLFVEGMHRIELHERALLAALLDGCGGRRGLRSIDGVEVYWDHDDLTKRDLIVGIGFAHLEPTQAVREYEKHGVIVYERVASSLYSGRMLKSFRLAGAVRISPLHCHAPDDIARFLAITGTLAANR”: the “soluble on expression in E. coli” value is “not soluble”.

Turning to “MKLSDMQLFRGLEEDDISSLLSCLNSVKRNYKKGEVILSEGSIIENIGIVLSGMAMISCNEIWGNTSILGSVAPGSVFAEVYACIPGQPMLVTVSAVEDTSVLFMNVGRVLTTCTNACPFHTNLARNLLTVCAHKSLQLSQRILHTSSKSIRGRLMSYFSECAKHAGSNSFLIPYNRQQLADYLNVDRSTMCNELSKMQKDGMIEYKKNRILLKD”, the “soluble on expression in E. coli” value is on record as “not soluble”.

Consider “METYTVKLGSDKGLLVFEPAKLTIKPGDTVEFLNNKVPPHNVVFDAALNPAKSADLAKSLSHKQLLMSPGQSTSTTFPADAPAGEYTFYCEPHRGAGMVGKITVAG”, for which the “soluble on expression in E. coli” value is “soluble”.

As for “GSHMKFTRVCDRRDVPEGEALKVESGGTSVAIFNVDGELFATQDRCTHGDWSLSDGGYLEGDVVECSLHMGKFCVRTGKVKSPPPCEALKIFPIRIEDNDVLVDFEAGYLAP”, the “soluble on expression in E. coli” value is “soluble”.

Consider “MDADKDNIKQACDERSAEMDDMRGEQSMGLVHEIMSENKELDEEIKKLEAELQSDAREFQIKENVPEKKLKLTSVESPEDGCHFSNSSCSFQVSSQILYELQKGQALITFEKEEVAQNVISMGNHVVQMEGTPVKVSAHPVPLNTGVRFQVHVDISKMKINVTGIPDELSEEQTRDKLELSFCKSRNGGGEVESVDYDRKSRSAVITFVETGVVDKILKKKTYPLYMNQKCHSVAVSPCIERRLEKYQVFSAVSKKTVLLTGLEGIRVDEETGEDLLNIHFQRKNNGGGEVEVVKCSLDQSFAAYFKEEARETI”, for which the “soluble on expression in E. coli” value is “not soluble”.

As for “GPGSMEETVEHHFVEPNNISHMERHTAYATGPLDIDGGSSDSNCVLTAPSMTVTTSADGSSFVQLTEEDMQLMPEEQSISGGSYDETRTPESVNVVNS”, the “soluble on expression in E. coli” value was “not soluble”.

“MADHAHNLRATFGHGRPIGVITRGTTGFNRLRRCDRWMAHHPLIQQALRRTSDPIALDVGYGASFTTTVEWARWLRTMRDDVRVTGLEIDPERVLPPRDGVTFELGGFELAGYQPTLVRAFNVLRQYDVDQVMDAWEMVTSRLQPGGFFVEGTCDELGRRSTWVLLNHAGPQSLTLCWDPFDVERPSDIAERLPKILIHRNVAGEKIHDVLLRTDEAWDRCAPWASYGPRVRWRAARAMLMDMGIPMSIIRRPVRDNQLTVPWSIVDPTT”: the “soluble on expression in E. coli” value is given as “not soluble”.

With “MASASRLPPLPALRDFIHMYRLRAKKILSQNYLMDMNITRKIAKHAKVIEKDWVIEIGPGPGGITRAILEAGASRLDVVEIDNRFIPPLQHLAEAADSRMFIHHQDALRTEIGDIWKNETARPESVDWHDSNLPAMHVIGNLPFNIASPLIIKYLRDMSYRRGVWQYGRVPLTLTFQLEVAKRLCSPIACDTRSRISIMSQYVAEPKMVFQISGSCFVPRPQVDVGVVRFVPRKTPLVNTSFEVLEKVCRQVFHYRQKYVTKGLKTLYPEELEDELSDDLLKKCRIDPTTTSIRLGIEQFADLAEGYNEQCIRYPGLFLYDYTNKLHNLEDLSKEPNALPPPVPIFAPAPTIDSADNTWSLKNFNCS”, the “soluble on expression in E. coli” value is “not soluble”.

As to “MGSDKIHHHHHHMITEELQKLYQEYTGVPVENITELPSSGSNRRYFRLTGAKTLIGVCGTSVEENDAFLYMAAHFRKSGLPVPEVHIVSENKSYYLQEDLGDTLLFHAIEKGRATSVFSEEEKELLRKTVRLLPAIQFAGADGFDFSRCYPQPEFNQRSILWDLNYFKYCFLKATGMEFQEDKLEDDFQKMSDVLLRSSSATFMYRDFQSRNVMIKDGEPWFIDFQGGRKGPFYYDVASFLWQAKAKYPDSLRQELLKEYIDALRKYQPIDEPYFYSQLRHFVLFRTLQVLGAYGFRGYFEKKPHFIQSVPFAIQNLRDLLKEAYPEYPYLCNVLRELTELKQFTDDLKKRQLTVKVMSFAYKKGIPDDPTGNGGGYVFDCRAVNNPGKYERYKPFTGLDEPVISFLEEDGEILRFLDSVYALVDASVKRYMERGFSNLSVCFGCTGGQHRSVYSAQHLAEHLNRKFGVKVELVHREQNIERTFEATV”, the “soluble on expression in E. coli” value was “not soluble”.

With “MPQTPPFPVMYGSTNGYNKNLYKAKEEDYEGLYYHDNNLISGSLEALIEHLVPTVAYYPDRTYIFTFLLSSRLFLHPYELMSKVCHLCVDQQRLSDPQADKARVRKIAPKILQLLTEWTETFPYDFRDERMMKSLKELTHRLSTGEDLYRKAVQQMTQTLIRKLTTLSQYEEALAKINSSVTDRLTVLKTKPQSIQRDILTICNDPFTLAQQLTHIELERLSYIGPEEFVQAFVQKDPLDNDKNCFSDHKKASNLEAYVEWFNRLSYLVATEICMPVKKKHRARVIEFFIDVARECFNIGNFNSLMAIITGMNMSPVSRLKKTWAKVKTAKFDILEHQMDPSSNFYNYRTALRGATQRSITAHSSREKIVIPFFSLLIKDIYFLNEGCANRLPNGHVNFEKFWGLAKQVTEFMTWKKVECPFDRDRKILQYLLTAPVFSEDALYLASYESEGPENNMEKDRWKSLRSSLLNRT”, the “soluble on expression in E. coli” value is “soluble”.

For “MASQQQTVREWSGINTFAPATQTKLLELLGNLKQEDVNSLTILVMGKGGVGKSSTVNSIIGERVVSISPFQSEGPRPVMVSRSRAGFTLNIIDTPGLIEGGYINDMALNIIKSFLLDKTIDVLLYVDRLDAYRVDNLDKLVAKAITDSFGKGIWNKAIVALTHAQFSPPDGLPYDEFFSKRSEALLQVVRSGASLKKDAQASDIPVVLIENSGRCNKNDSDEKVLPNGIAWIPHLVQTITEVALNKSESIFVDKNLIDKLAAADHHHHHH”, the “soluble on expression in E. coli” value is “soluble”.
